In article PMC12360457 (Nature, 2025):

Biological target: the molecule itself
Assay: cryo-EM structure

B1: Hailong protein A (HalA) from Rhodobacteraceae bacterium QY30, purified as the detergent-solubilized HalA–ODA complex (natural protein)
chain: DTNAVKEPEPALPSAASRGRRTKNWWEPMFDANAPASFSVSDWNFSNNRGPRCTLFLAEKMPDATTLVVKDIDFQDCDFQGTFERKIVFKDCKFTRCDFGLSTFSRTKFSGCSFYASSFTQCTLENCEFRNCKYEKIFYSGNETQIPRTLIAEPYQFLFGACATVDSVPQGKSRFEQRARFEETRSTIARALLANLHSEGSEDTYYAAVKASTLSENRARIARALIKINSSASKGKSIISRAVSFLTGFASAISAVVGMLILLVMGSLNGWGSSISRAMLVGVVAISCVAYRYHYRFNLPPEDAMVKATEIFFLFGYTNYAKMGQEDFHLVFSNALLGLFWYAIAIPTISNRLTRARG
**Q.** Does B1 bind?
**A.** Result: binds
